# Experimental data published in publication PMC3682517.
# Molecular target: GST-AKAP79
# Assay: phage display recovery; RII phage recovered by GST-AKAP79 compared with GST alone; pilot study (supplemental Fig. S1B)
# Sequence of GST-AKAP79 (P24588 whole entry): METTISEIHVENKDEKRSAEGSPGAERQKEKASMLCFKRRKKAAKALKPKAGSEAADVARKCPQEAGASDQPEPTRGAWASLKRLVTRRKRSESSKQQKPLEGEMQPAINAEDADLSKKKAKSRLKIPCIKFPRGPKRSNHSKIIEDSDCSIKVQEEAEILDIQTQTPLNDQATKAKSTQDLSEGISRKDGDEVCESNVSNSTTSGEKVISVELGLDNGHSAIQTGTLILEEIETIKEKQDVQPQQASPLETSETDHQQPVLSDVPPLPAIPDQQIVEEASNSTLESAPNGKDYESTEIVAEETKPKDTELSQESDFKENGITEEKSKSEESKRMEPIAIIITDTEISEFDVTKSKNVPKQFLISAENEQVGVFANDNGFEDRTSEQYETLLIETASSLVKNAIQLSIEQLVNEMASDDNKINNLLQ
# Sequence of RII phage: PKA RIIα (residues 1–45) displayed on the T7 capsid protein (P13861 2-404): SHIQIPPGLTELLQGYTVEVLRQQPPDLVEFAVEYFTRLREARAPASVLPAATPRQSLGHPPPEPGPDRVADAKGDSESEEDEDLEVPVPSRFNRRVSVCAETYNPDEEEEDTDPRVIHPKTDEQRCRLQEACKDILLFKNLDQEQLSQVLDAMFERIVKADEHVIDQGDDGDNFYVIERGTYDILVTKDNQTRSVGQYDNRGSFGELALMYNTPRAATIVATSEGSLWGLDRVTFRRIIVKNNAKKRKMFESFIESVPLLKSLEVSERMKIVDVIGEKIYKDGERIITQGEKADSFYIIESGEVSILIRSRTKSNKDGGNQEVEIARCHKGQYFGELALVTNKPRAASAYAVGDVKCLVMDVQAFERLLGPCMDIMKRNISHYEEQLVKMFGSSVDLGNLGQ
substance,measurement,value
RII phage: PKA RIIα (residues 1–45) displayed on the T7 capsid protein (from UniProt P13861 1-45) (domain or fragment),fold more phage recovered than with GST alone,300 fold
